Results on 7 molecules are retold here after patent publication US20030114404, “Vascular endothelial growth factor (VEGF) nucleic acid ligand complexes” (Gilead Sciences, Inc., published 2003).

The target of series [1] is T1, VEGF165 (Homo sapiens, UniProt P15692-4 P15692-4:27-191). Nature of the series: filter; 37 C; variable region starts CCCC in table, CGCC in listing. The conditions noted are these: tags: carrier-free, Sf 21 insect cell expressed, R & D Systems; chain copies: 2 (inferred). On the procedure:
(§1) Nucleic Acid Ligands radiolabeled during transcription by incorporation of α-[³²P]-labeled NTPs, or after synthesis using γ-[³²P]-ATP and T4 polynucleotide kinase, were incubated in low concentration (between 20 and 70 pM) with varying concentrations of VEGF or other growth factors at 37° C. for 15 minutes. Incubations were in TBS, PBS, or HEPES-buffered saline (HBS), pH 7.4, with or without the addition of supplemental divalent cations. Samples were passed through prewashed 0.45 μ Type HA filters (Millipore) followed by a 5-10 ml wash with binding buffer. Filters were immersed in scintillant and counted to quantitate the amount of protein-bound RNA retained by each filter. The equilibrium dissociation constant (KD) of Nucleic Acid Ligand binding to a specific protein was calculated from the data points as described in Green et al. (1996) Biochem. 35: 14413-14424.

In series [2] the target is T2, VEGF164 (Mus musculus, UniProt Q00731-2 Q00731-2:27-190).
T2 sequence: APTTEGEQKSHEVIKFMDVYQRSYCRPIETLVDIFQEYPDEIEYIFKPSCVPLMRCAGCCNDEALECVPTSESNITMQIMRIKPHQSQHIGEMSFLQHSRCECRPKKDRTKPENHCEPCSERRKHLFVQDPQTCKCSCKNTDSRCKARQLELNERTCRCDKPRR
Kind of series: filter; bound equally well to human and murine VEGF. The conditions noted are these: tags: carrier-free, Sf21-expressed, R&D Systems; chain copies: 2. On the procedure:
as §1
(§2) VEGF is a highly conserved protein across species, the human VEGF₁₆₅ and mouse VEGF₁₆₄ isoforms showing 88% sequence identity. The truncated, 2′-OMe-substituted ligands bound equally well to human and murine VEGF. […] Heterodimers between VEGF and PIGF have recently been isolated from the supernatants of both normal and tumor-derived cell lines, and such heterodimers show activity in binding to one of two high affinity VEGF receptors and in inducing responses in cultured endothelial cells. […]

A further series addresses VEGF121 (Homo sapiens, UniProt P15692-9 P15692-9:27-147). Nature of the series: filter; no measurable affinity. The conditions noted are these: tags: carrier-free, E. coli expressed, R & D Systems; chain copies: 2 (inferred).
For series [3], the target named is T1, VEGF165. Kind of series: filter; s.d. 36; 37 C; divalent cation independent. The conditions noted are these: tags: carrier-free, Sf 21 insect cell expressed, R & D Systems; chain copies: 2 (inferred). On the procedure: as §1
(§3) 2′OH nucleotides are indicated in bold, and 2′OMe nucleotides are indicated in plain text.
Target sequence in this assay (P15692 other isoform, or with tags, fused parts or gaps): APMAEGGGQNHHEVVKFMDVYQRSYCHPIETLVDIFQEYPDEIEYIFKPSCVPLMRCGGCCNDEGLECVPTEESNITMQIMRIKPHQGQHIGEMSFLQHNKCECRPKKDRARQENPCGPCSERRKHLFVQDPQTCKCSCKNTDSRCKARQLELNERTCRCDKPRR

In another series the target is T3, PlGF (UniProt P49763-2 P49763-2:19-149).
T3 sequence: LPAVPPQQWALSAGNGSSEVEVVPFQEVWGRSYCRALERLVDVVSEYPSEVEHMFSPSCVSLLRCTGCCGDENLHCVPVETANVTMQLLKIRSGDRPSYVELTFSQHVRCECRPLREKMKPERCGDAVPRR
Nature of the series: filter; no binding to PlGF homodimer. The conditions noted are these: tags: carrier-free, E. coli expressed, R & D Systems; chain copies: 2 (stated homodimer). The procedure:
as §1
VEGF is a highly conserved protein across species, the human VEGF₁₆₅ and mouse VEGF₁₆₄ isoforms showing 88% sequence identity. The truncated, 2′-OMe-substituted ligands bound equally well to human and murine VEGF. […] Heterodimers between VEGF and PIGF have recently been isolated from the supernatants of both normal and tumor-derived cell lines, and such heterodimers show activity in binding to one of two high affinity VEGF receptors and in inducing responses in cultured endothelial cells. The biological relevance of VEGF/PIGF heterodimers is unknown. […] Alternatively, the structure of the VEGF subunit may be altered by participation in a heterodimer with PIGF with consequent distortion of the Nucleic Acid Ligand binding surface.

Series [4] deals with T1, VEGF165. Nature of the series: filter; 37 C; variable region ends GGCT in table, GGGU in listing. The note with it: tags: carrier-free, Sf 21 insect cell expressed, R & D Systems; chain copies: 2 (inferred). The procedure: as §1
The target in series [5] is T1, VEGF165. Kind of series: filter; divalent cations replaced with EGTA; CaCl2 restores binding, MgCl2 does not. The conditions noted are these: tags: carrier-free, Sf 21 insect cell expressed, R & D Systems; chain copies: 2 (inferred). On the procedure: as §1
Ligands in Families 1 and 2 were selected in the presence of magnesium cations while Family 3 ligands were selected in a buffer containing both magnesium and calcium. Since divalent cations may contribute to RNA/protein interactions through nonspecific or specific stabilization of high affinity RNA structures, we asked whether magnesium and/or calcium were required for the high affinity binding of representative ligands to VEGF.

Series [6] concerns the target T1, VEGF165. Nature of the series: filter; s.d. 11; text gives 49 pM; 37 C; calcium required. The note with it: tags: carrier-free, Sf 21 insect cell expressed, R & D Systems; chain copies: 2 (inferred). On the procedure:
as §1, §3

Series [7] concerns the target T2, VEGF164. Nature of the series: filter; binds equally well to human and murine VEGF. The note with it: tags: carrier-free, Sf 21 insect cell expressed, R & D Systems; chain copies: 2 (inferred). On the procedure:
as §1, §2

In series [8] the target is T1, VEGF165. Kind of series: filter; s.d. 50; 37 C; divalent cation independent. The note with it: tags: carrier-free, Sf 21 insect cell expressed, R & D Systems; chain copies: 2 (inferred). The procedure: as §1, §3

Chain of VEGF121 (P15692 other isoform, or with tags, fused parts or gaps): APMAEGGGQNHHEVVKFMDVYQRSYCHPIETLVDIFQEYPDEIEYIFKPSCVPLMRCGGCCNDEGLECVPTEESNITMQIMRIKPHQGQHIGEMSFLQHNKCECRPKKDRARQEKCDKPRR

B1: VP30.29 (ssRNA)
RNA: GGGAGGACGAUGCGGCGCCACUUUGGAAGUUAUUGAAUUUCGCGUCAGACGACUCGCCCGA
modifications: 2'-F pyrimidines
Consider B1, for which the Kd (as a rule, the equilibrium constant for the complex coming apart) with VEGF165 [1] was 7 pM.

B2: t2-OMe (ssRNA)
RNA: GCGAACCGAUGGAAUUUUUGGACGCUCGC
modifications: 2'-F pyrimidines; 2'-OMe purines except 2'-OH A5 and G20
Consider B2, for which, in the series with VEGF164 [2], the binding result is on record as “binds”.

B3: t22-OMe (ssRNA)
RNA: GCGGUAGGAAGAAUUGGAAGCGC
modifications: 2'-F pyrimidines, 2'-OMe purines except 2'-OH G4, A6
Regarding B3, the binding result with VEGF121 and with PlGF was “no binding” each time. For the same molecule, in the series with VEGF165 [3], the Kd came to 0.067 nM.

B4: t22-OMe (ssRNA)
RNA: GCGGUAGGAAGAAUUGGAAGCGC
modifications: 2'-F pyrimidines; 2'-OMe purines except 2'-OH G4 and A6
For B4, the binding result with VEGF164 [2] is “binds”.

B5: VP40.39 (ssRNA)
RNA: GGGAGGACGAUGCGGCAGUUAAUUAACUUGAGUUGUGAUGUGUGUCGUUAUGGGUCAGACGACUCGCCCGA
modifications: 2'-F pyrimidines
In the series with VEGF165 [4], B5 gave a Kd of 73 nM.

B6: t44-OMe (ssRNA)
RNA: CGGAAUCAGUGAAUGCUUAUACAUCCG
modifications: 2'-F pyrimidines, 2'-OMe purines except 2'-OH A4, A5
As for B6, the figures for the binding result in the series with VEGF121, with PlGF and in the series with VEGF164 [7] were “no binding”, “no binding” and “binds”, respectively. Further, the Kd with VEGF165 [5] was above 100 nM; with VEGF165 [6], 0.051 nM.

B7: t2-OMe (ssRNA)
RNA: GCGAACCGAUGGAAUUUUUGGACGCUCGC
modifications: 2'-F pyrimidines, 2'-OMe purines except 2'-OH A5, G20
B7: the binding result with VEGF121 and with PlGF was “no binding” each time. The same molecule gave a Kd with VEGF165 [8] of 0.14 nM.
